Assay results from publication PMC10194908 (PLOS ONE, 2023).

How the values were obtained:
[1] = target: T1, Recombinant NS1 from DENV-4-Dominica/814669/1981 (dengue virus serotype 4 …, UniProt P09866); experiment: immunoblot; settings: both partners purified
T1 construct: also called DENV-4 NS1
Target sequence in this assay (P09866 775-1126): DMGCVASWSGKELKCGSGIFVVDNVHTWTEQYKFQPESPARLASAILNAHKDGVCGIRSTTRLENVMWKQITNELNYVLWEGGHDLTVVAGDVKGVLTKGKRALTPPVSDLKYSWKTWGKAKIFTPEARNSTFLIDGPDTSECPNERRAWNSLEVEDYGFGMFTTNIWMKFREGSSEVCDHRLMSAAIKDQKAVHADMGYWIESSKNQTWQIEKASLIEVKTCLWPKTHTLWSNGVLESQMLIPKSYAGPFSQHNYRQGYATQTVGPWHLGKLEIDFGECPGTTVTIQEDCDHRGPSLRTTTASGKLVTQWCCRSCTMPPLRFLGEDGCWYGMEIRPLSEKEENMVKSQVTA

[2] = target: T2, Recombinant NS1 from DENV-3-Sri Lanka D3/H/IMTSSA-SRI/2000/1266 (dengue virus serotype 3 (Sri Lanka …, UniProt Q6YMS4)); experiment: immunoblot; settings: both partners purified
T2 construct: also called DENV-3 NS1

[3] = target: T1, Recombinant NS1 from …; experiment: BLI; settings: both partners purified
[4] = target: NS1 secreted from Vero cells infected with DENV-4-2641Y08 (Dengue virus type 4, strain 2641Y08 …, UniProt F8TEL4, strain); experiment: ELISA; settings: one partner purified
[5] = target: NS1 secreted from Vero cells infected with DENV-3-VN32/96 (Dengue virus 3, strain VN32/96 (paper: …, strain)); experiment: ELISA; settings: one partner purified
[6] = target: NS1 secreted from Vero cells infected with DENV-2-TSV01 (Dengue virus type 2, strain TSV01 …, UniProt Q91H74, strain); experiment: ELISA; settings: one partner purified
[7] = target: NS1 secreted from Vero cells infected with DENV-2-D2Y98P (Dengue virus type 2, strain D2Y98P …, UniProt F8TRW4, strain); experiment: ELISA; settings: one partner purified
[8] = target: NS1 secreted from Vero cells infected with DENV-4-TVP360 (Dengue virus type 4, strain TVP360 …, UniProt D2KQW6, strain); experiment: ELISA; settings: one partner purified
[9] = target: NS1 secreted from Vero cells infected with DENV-3-CHD94-089 (Dengue virus 3, strain CHD94-089 …, strain); experiment: ELISA; settings: one partner purified
[10] = target: T2, Recombinant NS1 from DENV-3-Sri Lanka …; experiment: ELISA; settings: both partners purified

Measured: binding result

T2 sequence (Q6YMS4 774-1125): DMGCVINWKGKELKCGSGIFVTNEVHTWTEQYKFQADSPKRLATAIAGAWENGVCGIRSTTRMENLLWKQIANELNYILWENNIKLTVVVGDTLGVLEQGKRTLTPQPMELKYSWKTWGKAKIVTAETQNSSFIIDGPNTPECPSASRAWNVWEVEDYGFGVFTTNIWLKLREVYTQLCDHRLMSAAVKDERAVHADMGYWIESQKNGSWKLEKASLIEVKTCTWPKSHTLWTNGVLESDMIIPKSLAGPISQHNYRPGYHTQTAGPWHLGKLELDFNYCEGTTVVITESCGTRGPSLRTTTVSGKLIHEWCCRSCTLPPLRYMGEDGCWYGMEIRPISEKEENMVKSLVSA

B1: D6 (antibody, V domains shown)
VH: EVQLVQSGGGLVQPGRSLRLSCAASGFTFQDYAMHWVRQAPGKGLEWVSGIGRDSGTIDYADSVKGRFTISRDNAKNSLYLQMNSLRAEDTALYYCAKISNGYRPDNWGQGTLVTVSS
VL: VLTQPPSVSVSPGQTARITCSGDVLAKRYARWFQQKPGQAPVVVIYKDSERPSGIPERLSGSSSGTTVTLTISGAQVEDEADYYCYCAADNNVVFGGGTKLTVL
notes: also called D6-HRP; HRP-D6
binds: [1]

B2: A2 (antibody, V domains shown)
VH: QVQLQESGGGVVQPGRSLRLFCAASGFTFSAFSTYAIHWVRQAPGKGLEWVAVISYDANNKYYADSVKGRFTISRDNFKSTLFLQMNSLRAEDTAVYYCARDRSDSGYDSYYYYYGMDVWGQGTTVTVSS
VL: QSVVTQPPSVSAAPGQKVTISCSGSSSNIGRNYVSWYQHLPGTAPKLLIYDNNKRRSGIPDRFSGSKSDTTATLGITGLQTVDEADYYCGSWDNSLSAYVFGTGTKVTV
notes: also called A2-HRP
binds: [2] | [3]

B3: D8 (antibody, V domains shown)
VH: QVQLQESGPGLVKPSETLPLTCTVSGGSISNNGFYWGWIRQPPGKGLEWIGNIYYRGSTYYNPSLNSRVTISVDTSKNQFSLQLNSVTAADTAVYYCARLGIQLWFAIDYWGQGTLVTVSS
VL: SVLTQPPAVSVALGQTVRITCQGDSLRSSYASWYQQKPGQAPVLIFYAKNNRPSGIPDRFSGSSSGNTASLTITGAQAEDEADYYCYSRDSSGNLWVFGGGTKLTVL
notes: also called D8-HRP; HRP-D8
binds: [4] | [5] | [6] | [7] | [8] | [9] | [10]
